Experiments:
[1] = molecular target: T1, recombinant human NRP-1 (3870-N1-025, Bio-Techne) (human, UniProt O14786 22-856); test: ELISA, antibody 10 µg/ml, 1 µg immobilised human NRP-1
T1 construct: extracellular domain; bought protein; also called human recombinant NRP-1

[2] = molecular target: T2, native human NRP-1 on the cell surface (human, UniProt O14786 22-923); test: flow cytometry, MDA-MB-231 cells, 40 ug/ml, with against without chondroitinase
T2 construct: whole, on cells; endogenous protein; isoform and glycosaminoglycan state on the cells not defined; also called native NRP-1 on MDA-MB-231 cells; native form of NRP-1 protein on the CTCs cell surface
Experimental: (§1) Chondroitinase (C2905, Sigma) was reconstituted in a 0.01% BSA aqueous solution. The MDA-MB-231 cells were treated with chondroitinase (1 U/ml) for 2 hours at 37° C. The cells were detached using cell dissociation solution non-enzymatic (C5914, Sigma). 300,000 cells per condition were washed with 2% FBS in PBS and then incubated with different antibodies of interest or their respective isotype controls at 40 μg/ml for 30 min at 4° C. After wash, an Alexa 488-conjugated anti-human immunoglobulin antibody (20022-1, Biotium) was added at 10 μg/ml for 30 min at 4° C. After a final wash, fluorescence, size and granularity of cells were measured by the LSR Fortessa cytometer (BD Biosciences).

[3] = molecular target: T3, NRP-1 peptide (Npep); test: ELISA, antibody 10 µg/ml, 2 µg immobilised Npep
T3 construct: also called synthetic peptide Npep
T3 peptide: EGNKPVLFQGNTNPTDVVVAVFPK

[4] = molecular target: T2, native human NRP-1 on the cell surface; test: flow cytometry, MDA-MB-231 cells, 10 ug/ml, +heparinase
[5] = molecular target: Replication protein A 70 kDa DNA-binding subunit (human) (UniProt P27694); test: co-IP from A549 WT lysate, LC-MS/MS, peak area against isotype IP
[6] = molecular target: DNA ligase 3 (human) (UniProt P49916); test: as above
[7] = molecular target: DNA topoisomerase 2-alpha (human) (UniProt P11388); test: as above
[8] = molecular target: DNA topoisomerase 2-beta (human) (UniProt Q02880); test: as above
[9] = molecular target: FACT complex subunit SPT16 (human) (UniProt Q9Y5B9); test: as above
[10] = molecular target: DNA mismatch repair protein Msh2 (human) (UniProt P43246); test: as above
[11] = molecular target: Poly [ADP-ribose] polymerase 1 (human) (UniProt P09874); test: as above
[12] = molecular target: Core histone macro-H2A.1 (human) (UniProt O75367); test: as above
[13] = molecular target: Werner syndrome ATP-dependent helicase (human) (UniProt Q14191); test: as above
[14] = molecular target: X-ray repair cross-complementing protein 6 (human) (UniProt P12956); test: as above
[15] = molecular target: T4, recombinant murine NRP-1 (5994-N1-050, Bio-Techne) (murine, UniProt P97333 22-856); test: ELISA, antibody 10 µg/ml, 1 µg immobilised murine NRP-1
T4 construct: extracellular domain; bought protein; also called mouse recombinant NRP-1

[16] = molecular target: T2, native human NRP-1 on the cell surface; test: flow cytometry, MDA-MB-231 cells, 10 ug/ml, with against without heparinase
[17] = molecular target: T2, native human NRP-1 on the cell surface; test: flow cytometry, MDA-MB-231 cells, 40 ug/ml, -chondroitinase
Experimental: as §1

[18] = molecular target: T2, native human NRP-1 on the cell surface; test: flow cytometry, MDA-MB-231 cells, 10 ug/ml, -heparinase

Absorbance [1]: 0.953
delta (% of control) [2]: -6.8%
Absorbance [3]: 0.855
percentage of binding [4]: 10.1%
Ratio Area V4/IgG4 [5]: 2
Ratio Area V4/IgG4 [6]: 78.8
Ratio Area V4/IgG4 [7]: 1440
Ratio Area V4/IgG4 [8]: 369
Ratio Area V4/IgG4 [9]: 6030
Ratio Area V4/IgG4 [10]: 1
Ratio Area V4/IgG4 [11]: 546
Ratio Area V4/IgG4 [12]: 1130
Ratio Area V4/IgG4 [13]: 540
Ratio Area V4/IgG4 [14]: 1.9
Absorbance [15]: 0.986
delta (% of control) [16]: -2.3%
percentage of binding [17]: 93.2%
percentage of binding [18]: 12.4%
B1: variant 4 of a-NRP1_LEP n° 1 (antibody, V domains shown)
VH: EVQLVESGGGLVQPGGSLRLSCAASGFTFSSFGMHWVRQAPGKGLEWVAYISSGSSTIHYADSVKGRFTISRDNAKNSLYLQMNSLRAEDTAMYYCARRHYGSSRYWYFDVWGQGTTVTVSS
VL: EIVLTQSPATLSLSPGERATLSCRASQSVKSYLAWYQQKPGQAPRLLIYYASSRATGIPARFSGSGSGTDFTLTISSLEPEDFAVYYCQQYSESPYTFGQGTKLEIK
notes: humanized variant of 21B10; isotype control hIgG4; also called variant 4 a-NRP1_LEP; variant n°4 a-NRP1_LEP

Reference: patent US20260226176A1 (THERANOVIR, published 2026)
